Reference: paper PMC8267615

Columns and labels:
[1] = target: TREM-1 expressed on the monocyte cell membrane (human (endogenous in monocytes)) (UniProt Q9NP99)
[2] = target: TREM-1 expressed on the monocyte cell membrane (human (endogenous in monocytes)) (UniProt Q9NP99); remark: listed apart in the source

Sequence of TREM-1 expressed on the monocyte cell membrane (human (endogenous in monocytes)) (Q9NP99 21-234): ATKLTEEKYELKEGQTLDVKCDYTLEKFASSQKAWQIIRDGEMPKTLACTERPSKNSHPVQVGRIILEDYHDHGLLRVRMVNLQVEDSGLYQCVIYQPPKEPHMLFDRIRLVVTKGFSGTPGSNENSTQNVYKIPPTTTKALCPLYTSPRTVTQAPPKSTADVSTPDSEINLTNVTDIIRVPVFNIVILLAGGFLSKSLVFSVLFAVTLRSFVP

Work on “recombinant human Hsp70 (major heat shock protein 70) (from UniProt P0DMV8 1-641) (natural protein)” yielded a cytotoxic activity of NK cells isolated on days four and six from PBMCs incubated with Hsp70 with or without the TREM-1 inhibitor LP17 (no difference on day six) [1] of 40%, a cytotoxicity against target cells of lymphocytes activated in PBMCs by six-day treatment with rising Hsp70 concentration (half maximal effective concentration) [2] of 0.5 nM and an inhibition of the cytotoxicity of Hsp70-activated lymphocytes by the TREM-1 inhibitor peptide LP17 (…), against LP17 concentration; not completely suppressed at higher concentration [2] of 0.01 nM.
